{"source": "patent US20040259075A1", "biological_target": "Env-CD4-CCR5 complex (Example II) (UniProt P01730)", "sequence (P51681 whole entry, chain 2 of 2, other chains not shown)": "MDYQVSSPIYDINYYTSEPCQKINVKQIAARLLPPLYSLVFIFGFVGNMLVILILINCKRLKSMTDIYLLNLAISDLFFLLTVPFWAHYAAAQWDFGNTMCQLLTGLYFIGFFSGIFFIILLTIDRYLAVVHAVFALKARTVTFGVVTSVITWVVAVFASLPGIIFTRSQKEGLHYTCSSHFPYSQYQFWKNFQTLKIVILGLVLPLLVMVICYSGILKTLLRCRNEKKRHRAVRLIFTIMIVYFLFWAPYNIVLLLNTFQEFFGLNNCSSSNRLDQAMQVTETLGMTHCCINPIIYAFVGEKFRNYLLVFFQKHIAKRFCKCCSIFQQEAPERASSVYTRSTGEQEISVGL", "test": "method not stated; reference is X5-Fab"}
{"binder": "FabS (Fab, V domains shown) VH: VQLLEQSGAEVKKPGSSVQVSCKASGGTFSMYGFNWVRQAPGHGLEWMGGIIPIFGTSNYAQKFRGRVTFTADQATSTAYMELTNLRSDDTAVYYCARDFGPDWEDGDSYDGSGRGFFDFWGQGTLVTVSS VL: ELVLTQSPGTLSLSAGERATLSCRASQSVSSGSLAWYQQKPGQAPRLLIYGASTRATGIPDRFSGSGSGTDFTLTIGRLEPEDLAVYYCQQYGTSPYTFGQGTKLEIKR", "values": [{"measurement": "fold increased affinity compared to the original X5-Fab", "result": 5, "unit": "fold"}]}
